Residue numbers refer to the chain shown, from its start. Names and notes keep the numbering of the source.
T1: ERRα (Homo sapiens, UniProt P11474)
T1 sequence (P11474 1-423): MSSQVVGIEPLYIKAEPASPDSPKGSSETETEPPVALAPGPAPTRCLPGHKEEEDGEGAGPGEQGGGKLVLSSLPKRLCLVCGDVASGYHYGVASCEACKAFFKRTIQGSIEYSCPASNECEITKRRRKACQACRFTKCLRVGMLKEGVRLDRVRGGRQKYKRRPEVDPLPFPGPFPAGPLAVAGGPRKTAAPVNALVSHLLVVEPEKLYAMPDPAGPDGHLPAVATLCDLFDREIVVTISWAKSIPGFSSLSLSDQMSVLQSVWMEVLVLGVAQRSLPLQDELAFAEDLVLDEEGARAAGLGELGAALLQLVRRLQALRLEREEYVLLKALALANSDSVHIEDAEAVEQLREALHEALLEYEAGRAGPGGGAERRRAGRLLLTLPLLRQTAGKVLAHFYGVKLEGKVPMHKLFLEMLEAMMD

T2: His-tagged ERR3 LBD (wild type; residues 229 to 458 of the Estrogen-Related Receptor 3) (human (human and murine receptor are …, UniProt P62508 229-458)
T2 construct: Expressed in E. coli BL21(DE3); Forms a homodimer in the crystal, in gel filtration and in mass spectrometry; SwissProt O75454 is printed for hERR3; also called wt LBD; wt ERR3; not shown: hexahistidine tag from vector pET-15b
T2 sequence: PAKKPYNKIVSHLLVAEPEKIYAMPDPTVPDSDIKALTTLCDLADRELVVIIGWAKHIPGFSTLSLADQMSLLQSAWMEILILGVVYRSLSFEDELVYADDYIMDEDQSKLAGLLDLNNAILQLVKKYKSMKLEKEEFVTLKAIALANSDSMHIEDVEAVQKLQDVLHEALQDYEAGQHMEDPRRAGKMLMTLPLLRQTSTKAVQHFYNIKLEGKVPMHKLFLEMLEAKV

T3: His-tagged ERR3 LBD mutant F435L (human (human and murine receptor are …, UniProt P62508 229-458))
T3 construct: also called ERR3(F435L); PHE435LEU; not shown: hexahistidine tag from vector pET-15b
T3 sequence: T2 sequence with F207L

T4: His-tagged ERR3 LBD mutant L345I (human (human and murine receptor are …, UniProt P62508 229-458))
T4 construct: not shown: hexahistidine tag from vector pET-15b
T4 sequence: T2 sequence with L117I

T5: His-tagged ERR3 LBD mutant A272F (human (human and murine receptor are …, UniProt P62508 229-458))
T5 construct: also called ERR3(A272F); ALA272PHE; not shown: hexahistidine tag from vector pET-15b
T5 sequence: T2 sequence with A44F

T6: His-tagged ERR3 LBD mutant A272L (human (human and murine receptor are …, UniProt P62508 229-458))
T6 construct: also called ERR3(A272L); ALA272LEU; not shown: hexahistidine tag from vector pET-15b
T6 sequence: T2 sequence with A44L

B1: hSRC-1 peptide (SRC-1 NR box 2, amino acids 686-700) (peptide)
peptide: RHKILHRLLQEGSPS
notes: Contains the second LXXLL motif of the RID of SRC-1; also called SRC-1 NR box 2 peptide
B2: GST-tagged SRC-1 RID (Receptor Interaction Domain of hSRC-1, amino acids 614-764) (other, not shown: a dimerising Fc or GST)
chain: HNNDRLSDGDSKYSQTSHKLVQLLTTTAEQQLRHADIDTSCKDVLSCTGTSNSASANSSGGSCPSSHSSLTERHKILHRLLQEGSPSDITTLSVEPDKKDSASTSVSVTGQVQGNSSIKLELDASKKKESKDHQLLRYLLDKDEKDLRSTP
notes: also called GST-SRC-1 RID; RID of SRC-1
B3: His-tagged ERR3 LBD mutant L345I-F435L (receptor)
chain: T2 sequence with L117I, F207L
notes: not shown: hexahistidine tag from vector pET-15b
B4: His-tagged ERR3 LBD mutant L345I-F435L-F450L (receptor)
chain: T2 sequence with L117I, F207L, F222L
notes: also called triple point mutation; not shown: hexahistidine tag from vector pET-15b

Experiments:
ERRα = target: T1, ERRα; settings: micromolar concentrations; Yang and Chen (1999); cited from earlier work
[1] = target: T2, His-tagged ERR3 LBD (wild type; …); assay: crystal structure
Text: A.2 Protein Purification, Crystallization, Data Collection and Processing.

[2] = target: T2, His-tagged ERR3 LBD (wild type; …); assay: native polyacrylamide gradient gel, no ligand
Protocol: (§1) After purification the proteins were dialyzed in assay buffer (20 mM Tris.HCl pH 8.0, 200 mM NaCl), and concentrated. […] Protein complexes were resolved on native polyacrylamide gradient gels (8%-25%) using the Phast System (Pharmacia).
(§2) In vitro interaction assays with the RID (amino acids 617-764) of the coactivator SRC-1 has first been performed. […] Complexes were separated on native polyacrylamide gradient gels.

[3] = target: T3, His-tagged ERR3 LBD mutant F435L; assay: native polyacrylamide gradient gel, no ligand
Protocol: as §1, §2

[4] = target: T4, His-tagged ERR3 LBD mutant L345I; assay: native polyacrylamide gradient gel, no ligand
Protocol: as §1, §2

[5] = target: T5, His-tagged ERR3 LBD mutant A272F; assay: native polyacrylamide gradient gel, no ligand
Protocol: as §1, §2

[6] = target: T6, His-tagged ERR3 LBD mutant A272L; assay: native polyacrylamide gradient gel, no ligand
Protocol: as §1, §2

[7] = target: B2; assay: native polyacrylamide gradient gel, no ligand
Protocol: as §1, §2

Molecule: CC1(C)C(C(Cl)Cl)C2(Cl)C(Cl)C(Cl)C1(Cl)C2(Cl)Cl (stereo not shown) [toxaphene]
- ERRα basal activity (ERRα): decrease

Molecule: ClC1=C(Cl)C2(Cl)C3C(Cl)C(Cl)CC3C1(Cl)C2(Cl)Cl (stereo not shown) [chlordane]
- ERRα basal activity (ERRα): decrease

Molecule: B1
- binding result [1]: binds

Molecule: B2
- binding result [2]: binds
- binding result [3]: binds
- binding result [4]: binds
- binding result [5]: binds
- binding result [6]: binds

Molecule: B3
- binding result [7]: binds

Molecule: B4
- binding result [7]: binds
